These results are taken from publication doi:10.1101/2023.10.12.561995 (bioRxiv, 2023).

This test deals with S-protein of WT SARS-CoV-2 (S-trimer) used in BLI (SARS-CoV-2 wildtype, UniProt P0DTC2, stabilised). Description: BLI.

B1: R1-26 (mAb, human IgG1) (antibody, V domains shown)
VH: EVQLVESGGGLVQPGGSLRLSCAASGFTFSSYWMSWVRQAPGKGLEWVANIKQDGSEKYYVDSVKGRFTISRDNAKNSLYLQMNSLRAEDTAVYYCARGQLGPWVGVDYWGQGTLVTVSS
VL: NFMLTQPHSVSESPGKTVTISCTGSSGSIASNYVQWYQQRPGSAPTTVIYEDNQRPSGVPDRFSGSIDSSSNSASLTISGLKTEDEADYYCQSYDSSNWVFGGGTQLTVL
As to B1, the binding result is recorded as “binds”.
